# Measurements as given in US20230220098A1, “THERAPEUTIC DRUG FOR POLYCYTHEMIA” (PERSEUS PROTEOMICS INC., priority 2019, published 2023).
# B1: TfR436: anti-human transferrin receptor antibody, VH SEQ ID NO: 7 and VL SEQ ID NO: 8, described in WO2014/073641; called PPMX-T003 in Tables 3 and 4 (antibody, listed as Homo sapiens, V domains shown)
# VH: DVQLVQSGGGVVQPGRSLRLSCAASGFPFKSYGMHWVRQAPGKGLEWVAVISYDGSNKYYADSVKGRFTISRDNSKNTLYLQMNSLRGEDTAVYYCARDSNFWSGYYSPVDVWGQGTTVTVSS
# VL: NFMLTQPHSVSESPGKTVTISCTRSSGSIASNSVQWYQQRPGSAPITVIYEDTQRPSGVPDRFSGSIDSSSNSASLTISGLQTEDEADYYCQSYDSAYHWVFGGGTKLAVL
# Assays:
# [1] = target: T1, Tf-TfR binding (Homo sapiens, UniProt P02786); assay: Tf-TfR binding inhibition ELISA (HRP-labeled Tf on solid-phase sTfR); conditions: dose 100 ng/mL; FIG. 3
# T1 construct: A human TfR extracellular domain (the amino acids at positions 89 to 760); made in house; host or cells: Expi293 cells
# Protocol: The Tf-TfR binding inhibitory activity of an antibody can be measured according to the method described in the after-mentioned “Example 2(2): Comparison between TfR436 antibody and antibodies of other companies in terms of Tf-TfR binding inhibition.” A TfR solution is dispensed into a substrate (a 96-well plate, etc.) and is then left at rest to obtain a solid phase, and thereafter, blocking is carried out. Subsequently, an HRP-labeled Tf solution is dispensed into the substrate, and an antibody is further added thereto, so that they are allowed to react with each other at room temperature. Thereafter, the substrate is washed, and a coloring reagent (TMB, etc.) is then added thereto, so that they are allowed to react with each other. After that, the absorbance is measured using a plate reader. By performing the above-described operations, the Tf-TfR binding inhibitory activity of the antibody can be evaluated.
# The sTfR described in Example 1 was adjusted to a concentration of 5.0 μg/mL by addition of PBST, and the diluted solution was then dispensed into MaxiSorp 96-well plate (Nunc) in an amount of 100 μL/well. Thereafter, it was left at rest at 4° C. overnight to obtain a solid phase. […] Thereafter, the absorbance at 450 nm (ref. 620 nm) was measured.
# [2] = tested on: HEL cells; assay: Combined effects of TfR436 and hydroxyurea on cell growth and cell death; type: cell-based; conditions: 72 hours
# Protocol: HEL cells were cultured in an RPMI-1640 (Sigma-Aldrich)+10% FBS (Sigma-Aldrich)+1% PenStrep (Gibco) medium, and were then adjusted to 20000 cells/mL with the same medium as described above. Hydroxyurea (Wako Pure Chemical Industries, Ltd.) was weighed and was then dissolved in a concentration of 100 mM in distilled water for injection (Otsuka Pharmaceutical). The thus adjusted cell solution was seeded on a 96-well plate (Thermo SCIENTIFIC) in an amount of 100 μL/well. […]
# From the plate after completion of the culture, the cultured cells in each well were dispensed into a V-bottom plate (Costar) in an amount of 100 μL, while pipetting. […] Then, the fluorescence of FL2 and the number of cells were measured. From the obtained results, the number of living cells (PI negative) and the number of dead cells (PI positive) were calculated, and thereafter, Viability (the number of PI-negative cells/the total number of cells×100) (%) and cell death percentage (100−Viability) (%) were calculated. Furthermore, the growth percentage in each well was calculated, when the number of living cells in the cell growth control was set to be 100%. […]
# T1 sequence (P02786 89-760): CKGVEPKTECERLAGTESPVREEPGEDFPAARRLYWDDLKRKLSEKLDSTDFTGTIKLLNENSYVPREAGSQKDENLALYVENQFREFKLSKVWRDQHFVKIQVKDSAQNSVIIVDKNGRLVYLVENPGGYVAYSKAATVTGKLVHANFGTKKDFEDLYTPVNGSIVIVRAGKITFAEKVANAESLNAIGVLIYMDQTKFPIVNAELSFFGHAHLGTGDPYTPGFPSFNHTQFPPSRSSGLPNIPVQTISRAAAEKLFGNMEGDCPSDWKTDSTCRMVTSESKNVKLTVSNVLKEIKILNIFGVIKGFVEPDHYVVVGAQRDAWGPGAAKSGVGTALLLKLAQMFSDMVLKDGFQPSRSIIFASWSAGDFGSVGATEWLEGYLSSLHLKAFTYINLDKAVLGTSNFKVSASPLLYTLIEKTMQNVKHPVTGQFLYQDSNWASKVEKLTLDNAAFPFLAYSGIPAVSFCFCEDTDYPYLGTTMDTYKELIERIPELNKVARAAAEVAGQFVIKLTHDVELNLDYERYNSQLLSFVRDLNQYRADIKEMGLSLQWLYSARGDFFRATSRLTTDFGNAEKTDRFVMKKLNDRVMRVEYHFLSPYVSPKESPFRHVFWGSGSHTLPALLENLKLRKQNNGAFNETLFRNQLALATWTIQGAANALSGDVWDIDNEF
molecule,measurement,setting,value
B1,inhibition of the binding of Tf-TfR,[1],completely inhibited
same,"cell growth inhibition, combined use with hydroxyurea",[2]; Table 3,synergistic cell growth inhibition effects were observed from a half or more of combined uses
same,"cell death percentage, combined use with hydroxyurea","[2]; all combined uses except lowest concentrations of both, Table 4",synergistic cell death-enhancing effects
